The target in the experiment is T1, IRAK-4 (UniProt Q9NWZ3 1-460).
T1 construct: also called Gal4AD-IRAK4 (in yeast); not shown: N-terminal Flag or VSV tag (pCRIII) in HEK293T co-immunoprecipitation
T1 sequence (looked up): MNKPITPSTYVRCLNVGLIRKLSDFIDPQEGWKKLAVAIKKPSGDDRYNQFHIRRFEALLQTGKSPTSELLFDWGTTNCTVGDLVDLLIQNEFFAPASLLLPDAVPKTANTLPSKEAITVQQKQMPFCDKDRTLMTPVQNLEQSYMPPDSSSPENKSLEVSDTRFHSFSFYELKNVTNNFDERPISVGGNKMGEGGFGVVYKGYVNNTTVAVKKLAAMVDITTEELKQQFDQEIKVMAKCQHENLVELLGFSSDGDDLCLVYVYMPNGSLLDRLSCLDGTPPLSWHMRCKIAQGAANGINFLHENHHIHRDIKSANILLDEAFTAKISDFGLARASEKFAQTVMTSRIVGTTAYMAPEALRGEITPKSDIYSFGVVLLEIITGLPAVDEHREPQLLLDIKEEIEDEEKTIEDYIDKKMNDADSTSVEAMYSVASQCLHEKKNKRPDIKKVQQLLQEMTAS
As to the kind of experiment: co-immunoprecipitation from transfected HEK293T cells. As to the method: To test this, IRAK-1KD and IRAK-4 interactions were analyzed in the presence or absence of MyD88 and/or MyD88S. […] However, addition of MyD88 but not MyD88S permitted assembly of a complex containing both IRAKs. MyD88 thereby appears to act like a hinge inducing the proximity of IRAK-1 and IRAK-4.
2×10⁶ HEK293T cells were plated on 10-cm petri dishes and transiently transfected with 1 μg of the indicated expression plasmids. The total amount of DNA was kept at 5 μg per petri dish by adding empty vector. Twenty-four hours post-transfection, cells were washed with PBS, and lysed in 500 μl lysis buffer (50 mM HEPES pH7.6, 250 mM NaCl, 0.1% NP-40, 5 mM EDTA, supplemented with protease and phosphatase inhibitors). Lysates were incubated for 16 hours with 5 μg anti-Flag (Sigma). Immunocomplexes were immobilized on protein A-Trisacryl beads (Pierce Chemical Co., Rockford, USA). The beads were washed twice with lysis buffer and twice with lysis buffer containing 1 M NaCl. Bound proteins were eluted by boiling in Laemli buffer and analyzed by 10% SDS-PAGE and Western blotting. Western blots were blocked with 5% milk and incubated overnight with primary antibodies. Antibodies raised against the C-terminal part of MyD88 were purchased from Immucor (Roedermark, Germany). […]

B1: E-MyD88S (other)
chain: MSAGDPRVGSGSLDSFMFSIPLVALNVGVRRRLSLFLNPRTPVAADWTLLPEEMGFEYLEIRELETRPDPTRSLLDAWQGRSGASVGRLLELLALLDREDILKELKSRIGQTPELFDAFICYCPNDIEFVQEMIRQLEQTDYRLKLCVSDRDVLPGTCVWSIASELIEKRCRRMVVVVSDDYLQSKECDFQTKFALSLSPGVQQKRLIPIKYKAMKKDFPSILRFITICDYTNPCTKSWFWTRLAKALSLP
notes: Expressed in HEK293T cells; also called pCAGGS-E-MyD88S; splice variant of MyD88 lacking the intermediate domain (ID); not shown: N-terminal E-tag
In the case of B1, the binding result is recorded as “no binding”.

Values taken from patent publication US20050181476A1 (VLAAMS INTERUNIVERSITAIR INSTITUUT VOOR BIOTECHNOLOGIE VZW, published 2005).
